The values below come from patent US20110166034A1.

The target in assay [1] is TCR of murine OT1 lymphocytes (specific for OVA257-264). Kind of assay: cell-based or functional assay.
Assay [2] deals with F5 MART-1 TCR, on Jurkat^α-MART-1 cells or on transduced human PBMCs. Kind of assay: immuno-PCR of the DNA tag after staining of cells, gel electrophoresis.
For assay [3] the target is unchanged. As to the kind of experiment: multiplexed cell sorting of a 1:1 cell mix; the number is an average over spots A and B.
In assay [4] the target is TCR specific for tyrosinase368-376, on Jurkat^α-Tyr cells. As to the kind of experiment: immuno-PCR of the DNA tag after staining of cells, gel electrophoresis (non-cognate control).
Assay [5] addresses F5 MART-1 TCR, on Jurkat^α-MART-1 cells or on transduced human PBMCs. Kind of assay: T cell capture density against the amount of p/MHC spotted on the covalent surface, Hill fit.
Assay [6] addresses TCR specific for tyrosinase368-376, on Jurkat^α-Tyr cells. Kind of assay: cell capture on a NACS array, mean of three spots of about 600 µm.
The target is the same in assay [7]. As to the kind of experiment: multiplexed cell sorting of a 1:1 cell mix; the number is an average over spots A and B.

Bounds are passed on as bounds.

In turn, “H-2Kb-OVA257-264 ssDNA-p/MHC tetramers (SAC scaffold, encoded to strands A', B' and C') (from UniProt P01901 22-305) (peptide-MHC)” registered an IFN-y clusters (ELISPOT-type sandwich assay on the array) in assay [1] of 3 clusters.
As for “MART-1 26-35/HLA-A2.1 ssDNA-p/MHC tetramer on the SAC scaffold (from UniProt P61769 21-119) (peptide-MHC)”, the PCR cycles to detection of the DNA tag is less than 15 cycles in assay [2] and 10 cycles in assay [4]. For the same substance, the average density (T cells/spot) in assay [3] worked out at 661 T cells/spot.
The substance “fluorescent MART-1 SA-PE tetramer (MART-1 26-35 loaded onto HLA-A2.1 MHC molecules) (from UniProt P61769 21-119) (peptide-MHC)” registered a K1/2 (p/MHC monomer at half max) in assay [5] of 5.7 ng.
“tyrosinase368-376/HLA-A2.1 ssDNA-p/MHC tetramer on the SAC (streptavidin-cysteine) scaffold (from UniProt P61769 21-119) (peptide-MHC)”: the mean binding capacity (cells per spot) (T cells per spot) in assay [6] was determined as 1490. In addition, in assay [7], the average density (T cells/spot) came to 661 T cells/spot.
